Data on 37 sequences can be found in patent US20170260531.

As usually defined, the Kd is the equilibrium constant for the complex coming apart. Lower therefore signals a tighter complex.

Where only a bound is given, the exact number is not on record here.

Series [1] has as its system T1, VEGF-121 (Homo sapiens), P15692-9.
T1 sequence: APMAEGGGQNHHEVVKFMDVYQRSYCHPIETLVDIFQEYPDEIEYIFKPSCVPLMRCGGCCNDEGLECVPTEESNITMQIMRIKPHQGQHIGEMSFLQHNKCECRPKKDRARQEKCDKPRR
Nature of the series: filter. Particulars: Nap-dU at all P positions; 2'-OMe at C6,G9,C12,G15,A17,G18,Nap22,G28,G29; 0.035 nM in Table 14.

Series [2] addresses PDGF-BB (Homo sapiens) (UniProt P01127). Nature of the series: filter. The following applies: Bn-dU.
Chain of UniProt P01127 (P01127 82-190): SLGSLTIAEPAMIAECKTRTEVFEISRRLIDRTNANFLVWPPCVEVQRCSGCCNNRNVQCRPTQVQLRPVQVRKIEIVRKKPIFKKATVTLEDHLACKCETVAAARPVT

In series [1], “CCGTTCAAGTGCTTGTAGGATTTAAATGG [4867-31_192]” displayed a Kd of 0.023 nM.
Regarding “TACGACTACGTTACACGCGTTTATAGCG [4149-8_64]”, the Kd in series [2] (C3 at position 1) is under 10 nM.
For “TTACACTACGTTACACGCGTTTATAGCG [4149-8_68]”, in series [2] (C3 at position 5), the dissociation constant Kd was under 10 nM.
In turn, “TTACGACACGTTACACGCGTTTATAGCG [4149-8_71]” had a Kd in series [2] (C3 at position 8) of under 10 nM.
“TTACGACTACGTTAACGCGTTTATAGCG [4149-8_78]” yielded a Kd in series [2] (C3 at position 15) of under 10 nM.
In turn, “TTACGACTACGTTACACGCGTTTATAGC [4149-8_92]” showed a Kd in series [2] (C3 at position 29) of under 10 nM.
Turning to “TTACGACTACGTTACACGCGTTTATAGCG [4149-8_44]”, the Kd in series [2] (2'-OMe at position 3) is under 10 nM.
In turn, “TTACGACTACGTTACACGCGTTTATAGCG [4149-8_45]” gave a Kd in series [2] (2'-OMe at position 4) of under 10 nM.
As for “TTACGACTACGTTACACGCGTTTATAGCG [4149-8_46]”, in series [2] (2'-OMe at position 5), the Kd was under 10 nM.
In the case of “TTACGACTACGTTACACGCGTTTATAGCG [4149-8_47]”, the Kd in series [2] (2'-OMe at position 6) is under 10 nM.
Consider “TTACGACTACGTTACACGCGTTTATAGCG [4149-8_48]”, for which, in series [2] (2'-OMe at position 7), the Kd was under 10 nM.
Consider “TTACGACTACGTTACACGCGTTTATAGCG [4149-8_49]”, for which the Kd in series [2] (2'-OMe at position 9) was under 10 nM.
As to “TTACGACTACGTTACACGCGTTTATAGCG [4149-8_50]”, in series [2] (2'-OMe at position 10), the Kd is under 10 nM.
In turn, “TTACGACTACGTTACACGCGTTTATAGCG [4149-8_51]” yielded a Kd in series [2] (2'-OMe at position 11) of under 10 nM.
Regarding “TTACGACTACGTTACACGCGTTTATAGCG [4149-8_52]”, the Kd in series [2] (2'-OMe at position 14) is under 10 nM.
Consider “TTACGACTACGTTACACGCGTTTATAGCG [4149-8_53]”, for which the Kd in series [2] (2'-OMe at position 15) was under 10 nM.
As for “TTACGACTACGTTACACGCGTTTATAGCG [4149-8_54]”, the Kd in series [2] (2'-OMe at position 16) is under 10 nM.
As for “TTACGACTACGTTACACGCGTTTATAGCG [4149-8_55]”, the Kd in series [2] (2'-OMe at position 17) was under 10 nM.
As to “TTACGACTACGTTACACGCGTTTATAGCG [4149-8_56]”, the Kd in series [2] (2'-OMe at position 18) is under 10 nM.
For “TTACGACTACGTTACACGCGTTTATAGCG [4149-8_57]”, the Kd in series [2] (2'-OMe at position 19) is under 10 nM.
“TTACGACTACGTTACACGCGTTTATAGCG [4149-8_58]”: in series [2] (2'-OMe at position 20), the Kd is under 10 nM.
In the case of “TTACGACTACGTTACACGCGTTTATAGCG [4149-8_59]”, in series [2] (2'-OMe at position 24), the Kd is under 10 nM.
“TTACGACTACGTTACACGCGTTTATAGCG [4149-8_60]”: the Kd in series [2] (2'-OMe at position 26) was under 10 nM.
Take “TTACGACTACGTTACACGCGTTTATAGCG [4149-8_61]”: the dissociation constant (Kd) in series [2] (2'-OMe at position 27) was under 10 nM.
“TTACGACTACGTTACACGCGTTTATAGCG [4149-8_62]” had a dissociation constant (Kd) in series [2] (2'-OMe at position 28) of under 10 nM.
Sequence “TTACGACTACGTTACACGCGTTTATAGCG [4149-8_63]” displayed a Kd in series [2] (2'-OMe at position 29) of under 10 nM.
On to “TTACGACTACGTTACACGCGTTTATAGG [4149-8_91]”, for which the Kd in series [2] (C3 at position 28) is under 10 nM.
As to “TTACGACTACGTTACACGCGTTTTAGCG [4149-8_87]”, in series [2] (C3 at position 24), the Kd was under 10 nM.
“TTACGACTACGTTACAGCGTTTATAGCG [4149-8_80]”: in series [2] (C3 at position 17), the Kd was under 10 nM.
On to “TTACGACTACGTTACCGCGTTTATAGCG [4149-8_79]”, for which, in series [2] (C3 at position 16), the Kd is under 10 nM.
In the case of “TTACGACTAGTTACACGCGTTTATAGCG [4149-8_73]”, the Kd in series [2] (C3 at position 10) was under 10 nM.
On to “TTACGACTCGTTACACGCGTTTATAGCG [4149-8_72]”, for which, in series [2] (C3 at position 9), the Kd is under 10 nM.
In the case of “TTACGATACGTTACACGCGTTTATAGCG [4149-8_70]”, the Kd in series [2] (C3 at position 7) was under 10 nM.
“TTACGCTACGTTACACGCGTTTATAGCG [4149-8_69]” returned a Kd in series [2] (C3 at position 6) of under 10 nM.
Take TTACGTTACCGCGTTTATAGCG [4149-8_426]: in series [2] (MBn-dU, Heg, C3, 2'-OMe), the Kd is over 10 nM.
TTACGTTACCGTTTATAG [4149-8_405]: in series [2] (Heg, C3), the Kd is over 10 nM.
For the sequence “TTAGACTACGTTACACGCGTTTATAGCG [4149-8_67]”, the equilibrium dissociation constant (Kd) in series [2] (C3 at position 4) is under 10 nM.
